Test system: neonatal mouse calvaria
Experiment: Neonatal calvaria organ culture assay (histomorphometry)
Assay type: cell-based
Experimental: Applicants used mouse neonatal calvaria organ culture assay to examine possible roles for Ccdc80 in bone formation/resorption. Neonatal mouse calvaria were prepared from 4-day-old pups as described previously (Traianedes K et al., Endocrinology 139:3178-84 (1998); Mundy G et al., Science 286:1946-49 (1999)). Briefly, calvaria were excised and cut in half along the sagittal suture. Each half calvaria was placed with the concave surface downward on a stainless steel grid (Small Parts, Inc., Miami, Fla.) in a 12-well tissue culture dish (Becton Dickinson, Oxnard, Calif.). Calvaria were pre-incubated overnight in serum-free BGJ medium with 0.1% BSA. Each well contained 1 ml of BGJ medium. After pre-incubation, calvaria were incubated for 7 days in BGJ medium containing 1% FBS without or with test samples. Calvaria in 12-well plates were incubated in a humidified atmosphere of 95% air and 5% CO2. Fresh test samples were added at the time of medium change on day 4.
After organ culture, calvaria were fixed in 10% neutral phosphate-buffered formaldehyde at room temperature for 72 hours, then decalcified for 5-6 hours in 10% EDTA in PBS. Calvaria in each group were embedded in parallel in the same paraffin block, and 4 μm sections were stained with hematoxylin-eosin. Consistent bone areas (200 μm away from frontal sutures) were selected for histomorphometric analysis. In brief, a 200 μm square grid was placed on each calvaria, and the number of osteoblasts and total bone area were determined with the Osteomeasure System (Osteometrics Inc., Atlanta, Ga.). All cells on the bone surface were counted as osteoblasts.
For this experiment, calvaria were prepared from 4-day old neonatal pups. Calvaria then were incubated for 7 days without (Control), or with serial dilutions of FLAG-purified Ccdc80 protein as shown in FIG. 4. Medium was changed on day 4. After organ culture, calvaria were fixed in 10% neutral phosphate buffered formaldehyde, embedded in paraffin block, sectioned at 4 μm, and stained with hematoxylin and Eosin for histomorphoemetric analysis.

[1] = 1% FLAG-purified Ccdc80 protein, 7 days

B1: FLAG-purified Ccdc80 protein: C-terminally FLAG-tagged human Ccdc80 purified from conditioned medium using anti-FLAG M2 affinity beads (protein)
chain: EPHPHATIRGSHGGRKVPLVSPDSSRPARFLRHTGRSRGIERSTLEEPNLQPLQRRRSVPVLRLARPTEPPARSDINGAAVRPEQRPAARGSPREMIRDEGSSARSRMLRFPSGSSSPNILASFAGKNRVWVISAPHASEGYYRLMMSLLKDDVYCELAERHIQQIVLFHQAGEEGGKVRRITSEGQILEQPLDPSLIPKLMSFLKLEKGKFGMVLLKKTLQVEERYPYPVRLEAMYEVIDQGPIRRIEKIRQKGFVQKCKASGVEGQVVAEGNDGGGGAGRPSLGSEKKKEDPRRAQVPPTRESRVKVLRKLAATAPALPQPPSTPRATTLPPAPATTVTRSTSRAVTVAARPMTTTAFPTTQRPWTPSPSHRPPTTTEVITARRPSVSENLYPPSRKDQHRERPQTTRRPSKATSLESFTNAPPTTISEPSTRAAGPGRFRDNRMDRREHGHRDPNVVPGPPKPAKEKPPKKKAQDKILSNEYEEKYDLSRPTASQLEDELQVGNVPLKKAKESKKHEKLEKPEKEKKKKMKNENADKLLKSEKQMKKSEKKSKQEKEKSKKKKGGKTEQDGYQKPTNKHFTQSPKKSVADLLGSFEGKRRLLLITAPKAENNMYVQQRDEYLESFCKMATRKISVITIFGPVNNSTMKIDHFQLDNEKPMRVVDDEDLVDQRLISELRKEYGMTYNDFFMVLTDVDLRVKQYYEVPITMKSVFDLIDTFQSRIKDMEKQKKEGIVCKEDKKQSLENFLSRFRWRRRLLVISAPNDEDWAYSQQLSALSGQACNFGLRHITILKLLGVGEEVGGVLELFPINGSSVVEREDVPAHLVKDIRNYFQVSPEYFSMLLVGKDGNVKSWYPSPMWSMVIVYDLIDSMQLRRQEMAIQQSLGMRCPEDEYAGYGYHSYHQGYQDGYQDDYRHHESYHHGYPY
modifications: left off: small tags and cut ends
Q: What does the source list for B1?
A: bone resorption (histologically) [1]: enhanced; number of osteoblasts [1]: not significantly altered; osteoblast activation [1]: activated; increase in total bone area (1% FLAG-purified Ccdc80 protein, 7 days, P<0.0001): 62%; osteogenic activities (purified protein sample diluted as low as 0.01%, 7 days): clearly observed; number of osteoblasts (summary) (summary statement): unaltered; osteoblast activation (summary) (summary statement): activated osteoblasts

Source: patent US20080241129A1, “ADIPOCYTE SECRETED PROTEIN CCDC80 IS A POTENT STIMULATOR OF BONE FORMATION” (Wyeth, priority 2007, published 2008)
